The source of these data is article PMC9563714.

The series deals with T1, Vfr (Pseudomonas aeruginosa UCBPP-PA14) (UniProt P55222).
T1 sequence: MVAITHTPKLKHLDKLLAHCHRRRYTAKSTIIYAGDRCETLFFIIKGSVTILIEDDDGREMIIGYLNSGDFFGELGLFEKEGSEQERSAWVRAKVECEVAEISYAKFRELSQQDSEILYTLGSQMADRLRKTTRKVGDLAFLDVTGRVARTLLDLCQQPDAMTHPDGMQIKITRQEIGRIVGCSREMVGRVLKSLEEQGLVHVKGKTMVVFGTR
Description: EMSA. (Mobility shift assays separate free from complexed probe on a gel.)

On to “TCTGACCCATCCGCGCGACTGGCCCCCGGGCCGGTCGCTCCCCCGGGACGACCGTCGGTCCCGGATCGGCGCGCTTTCCTGAACTATCGATCAGCTGTCACTGGCCGCCGCGCAAACGCTTGGTTAAGATTCCGCCAGCAACCTGGCCACCCGCCATTCCCCAGGCGGAAAGCTCACGAGGCCGAGCCGGGACGAAAATACACAGGGATCCTCTCCAGCGCATG (double strand) [PcyaB]”, for which the binding result is on record as “no binding”.
